Residue numbers refer to the chain shown, from its start. In names and notes the source's numbering stands.
B1: Her2/Hel bispecific antibody, Combination 1 in Table 3 / Table 9 / Table 10 (anti-Her2: Q39K, F126C, C220S / Q38D, Q124C, C214S; anti-Hel: Q39D / Q38K) (bispecific antibody, human IgG1, kappa, L234A L235A)
heavy 1: not shown
light 1: not shown
heavy 2: EVRLLESGGGLVQPGGSLRLSCAASGFTFSNYAMGWVRDAPGKGLEWVSAISGSGGSTYYADSVKGRFTTSRDDSKNALYLQMNSLRAEDTAVYYCARGGPGWYAADVWGQGTTVTVSSASTKGPSVFPLAPSSKSTSGGTAALGCLVKDYFPEPVTVSWNSGALTSGVHTFPAVLQSSGLYSLSSVVTVPSSSLGTQTYICNVNHKPSNTKVDKKVEPKSCDKTHTCPPCPAPEAAGGPSVFLFPPKPKDTLMISRTPEVTCVVVDVSHEDPEVKFNWYVDGVEVHNAKTKPREEQYNSTYRVVSVLTVLHQDWLNGKEYKCKVSNKALPAPIEKTISKAKGQPREPQVCTLPPSRDELTKNQVSLSCAVKGFYPSDIAVEWESNGQPENNYKTTPPVLDSDGSFFLVSKLTVDKSRWQQGNVFSCSVMHEALHNHYTQKSLSLSPGK
light 2: DIQMTQSPSSLSASVGDRVTITCRASQSISSYLNWYQKKPGKAPKLLIYAASSLQSGVPSRFSGSGSGTDFTLTISSLQPEDFATYYCQQADLPAFAFGGGTKVEIKRTVAAPSVFIFPPSDEQLKSGTASVVCLLNNFYPREAKVQWKVDNALQSGNSQESVTEQDSKDSTYSLSSTLTLSKADYEKHKVYACEVTHQGLSSPVTKSFNRGEC
B2: Her2/Hel bispecific antibody, Combination 2 in Table 3 / Table 9 / Table 10 (anti-Her2: L45K, F126C, C220S / Y87D, Q124C, C214S; anti-Hel: L45D / Y87K) (bispecific antibody)
heavy 1: not shown
light 1: not shown
heavy 2: B1 heavy 2 with D39Q, L45D
light 2: B1 light 2 with K38Q, Y87K
B3: Her2/Hel bispecific antibody, Combination 3 in Table 3 / Table 9 / Table 10 (anti-Her2: L45K, F126C, C220S / P44D, Q124C, C214S; anti-Hel: L45D / P44K) (bispecific antibody, human IgG1, kappa, L234A L235A)
heavy 1: not shown
light 1: not shown
heavy 2: B1 heavy 2 with D39Q, L45D
light 2: B1 light 2 with K38Q, P44K
B4: Her2/Hel bispecific antibody, Combination 4 in Table 3 / Table 9 / Table 10 (anti-Her2: Y91K, F126C, C220S / A43D, Q124C, C214S; anti-Hel: Y91D / A43K) (bispecific antibody, human IgG1, kappa, L234A L235A)
heavy 1: not shown
light 1: not shown
heavy 2: B1 heavy 2 with D39Q, Y95D
light 2: B1 light 2 with K38Q, A43K
B5: Her2/Hel bispecific antibody, Combination 5 in Table 3 / Table 9 / Table 10 (anti-Her2: Y91K, F126C, C220S / P44D, Q124C, C214S; anti-Hel: Y91D / P44K) (bispecific antibody, human IgG1, kappa, L234A L235A)
heavy 1: not shown
light 1: not shown
heavy 2: B1 heavy 2 with D39Q, Y95D
light 2: B1 light 2 with K38Q, P44K

Molecular target: T1, Human Her2 (Human, UniProt P04626 23-652)
T1 construct: also called antigen Her2
Test: BLI (ForteBio), antibody loaded on ProA sensors, antigen fusion protein in solution, 30 degrees
Method: Biolayer Interferometry (BLI) technology was used to test the equilibration dissociation constant (KD) of bispecific antibody binding to the respective antigens in the present disclosure. The BLI method affinity test was performed using an existing method (Estep, P et al., High throughput solution Based measurement of antibody-antigen affinity and epitope binning. MAbs, 2013.5 (2): Pages 270-8).
Half an hour before the start of the experiment, a suitable number of ProA (ForteBio, 18-5010) sensors based on the sample size were soaked in SD buffer (PBS 1×, BSA 0.1%, Tween-20 0.05%). 100 μL of SD buffer and antigen fusion protein were taken and added to a 96-well black polystyrene half-area microplate (Greiner, 675076), respectively. The sensor position was selected based on the sample position and layout. The instrument setting parameters are as follows: Run steps: Baseline, Loading ˜1 nm, Baseline, Association and Dissociation; the run time of each step depended on the sample binding and dissociation rate, and the rotational speed was 400 rpm and temperature was 30 degrees. ForteBio analysis software was used to analysis the KD value.

Row | Kd [nM] | koff [s⁻¹] | kon [M⁻¹ s⁻¹] | Binder
1 | 0.805 | 0.0002 | 249000 | B1
2 | 0.748 | 0.0002 | 268000 | B2
3 | 0.758 | 0.0002 | 264000 | B3
4 | 0.764 | 0.0002 | 262000 | B4
5 | 0.72 | 0.0002 | 278000 | B5
